Results on four molecules are retold here after patent US20210347873A1 (SHANGHAI PHARMAEXPLORER, published 2021).

The target in test [1] is T1, human APRIL protein (human, UniProt O75888 105-250, limits assumed).
T1 construct: Bought protein; also called recombinant APRIL protein
T1 sequence (looked up): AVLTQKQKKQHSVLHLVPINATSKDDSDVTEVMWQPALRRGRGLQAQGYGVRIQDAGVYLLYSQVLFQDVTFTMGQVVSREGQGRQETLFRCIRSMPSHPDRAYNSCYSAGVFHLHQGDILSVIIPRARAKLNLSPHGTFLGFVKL
The test is described as follows: ELISA, coated APRIL; antibody 0.534 nM. As to the method: (§1) To test whether the BLyS antibody cross-reacted with human APRIL protein, APRIL protein (purchased from R & D Systems) was first diluted to a final concentration of 1.0 μg/mL with PBS, and then 50 μL of which per well was aliquoted into a 96-well ELISA plate, and the plate was subsequently sealed with plastic film and incubated at 4° C. overnight. On the next day the plate was rinsed four times with the plate washing buffer [PBS buffer containing 0.0500 (v/v) Tween20] and a blocking solution [PBS buffer containing 0.05 (v/v) Tween20 and 1 (w/w) BSA] was added, then the protein was blocked at 37° C. for 2 hours. The blocking solution was removed and 100 μL per well of the lead antibodies prepared in Embodiment 1 and 2 were added in. After incubation for 1 hour at 37° C., the plate was rinsed four times with the plate washing buffer [PBS buffer containing 0.05 (v/v) Tween20]. HRP-labeled (horseradish peroxidase) secondary antibody (purchased from Sigma) was added in and incubated at 37° C. for 1 hour. The plate was then rinsed four times with the plate washing buffer [PBS buffer containing 0.050 (v/v) Tween20]. 100 μL of TMB substrate was aliquoted into each well and after incubation at room temperature for 5 minutes, 100 μL of stop solution (1.0 N HCl) was aliquoted into each well. A₄₅₀ₙₘ values were read via an ELISA plate reader (SpectraMax M5e purchased from Molecular Devices) and the results were shown in FIGS. 6A-6B and Table 11. […] As used herein, the IgG control is human IgG and the data in the table is GD number at 450 nm.
(An ELISA detects its analyte on a solid surface through an enzyme-linked reagent.)

The target of test [2] is T1, human APRIL protein. The test is described as follows: ELISA, coated APRIL; antibody 0.00427 nM. On the procedure:
as §1

The target of test [3] is T1, human APRIL protein. The test is described as follows: ELISA, coated APRIL; antibody 66.7 nM. On the procedure:
as §1

Test [4] concerns the target T1, human APRIL protein. Nature of the test: ELISA, coated APRIL; antibody 0 nM (blank). On the procedure:
as §1

Test [5] addresses T1, human APRIL protein. The test is described as follows: ELISA, coated APRIL; antibody 0.107 nM. As to the method: as §1
The target of test [6] is T1, human APRIL protein. Nature of the test: ELISA, coated APRIL; antibody 13.3 nM. As to the method: as §1
Test [7] has as its target T1, human APRIL protein. The test is described as follows: ELISA, coated APRIL; antibody 2.67 nM. As to the method:
as §1

The target in test [8] is T1, human APRIL protein. The test is described as follows: ELISA, coated APRIL; antibody 0.0213 nM. As to the method:
as §1

The target in test [9] is T2, cynomolgus BLyS (full length, arginine to histidine at position 132) on CHO-K1 cells (cynomolgus, UniProt Q9Y275 1-285 (human entry)).
T2 construct: also called cyno BLyS; CHO-K1 cynoBLyS
T2 chain: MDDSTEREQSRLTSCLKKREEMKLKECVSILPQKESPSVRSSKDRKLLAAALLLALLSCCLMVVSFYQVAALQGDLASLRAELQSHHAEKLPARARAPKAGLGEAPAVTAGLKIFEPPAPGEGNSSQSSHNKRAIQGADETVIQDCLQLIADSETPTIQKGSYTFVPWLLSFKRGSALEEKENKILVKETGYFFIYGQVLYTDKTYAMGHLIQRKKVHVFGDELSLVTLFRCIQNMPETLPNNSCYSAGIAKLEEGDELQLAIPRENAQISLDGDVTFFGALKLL
Nature of the test: flow cytometry, CHO-K1 cynoBLyS cells, antibody 66.7 nM. On the procedure: (§2) The medium was aspirated completely, and the cells were rinsed once with PBS buffer (purchased from Invitrogen) and then treated with cell dispersion solution (TrypLE™ Express Enzyme, purchased from Life technology) and collected. The detailed steps are as follows: the cells were rinsed once with PBS buffer, after counting, the cells were diluted to 2×10⁶ cells/ml with PBS buffer, blocked with 2% (w/w) fetal bovine serum and incubated on ice for 30 minutes. 200 μL of which per well was aliquoted into a 96-well FACS plate and centrifuged at 2000 rpm at 4° C., then each 100 μL of the lead antibodies obtained from Embodiment 1 and 2 were aliquoted into each well and incubated on ice for 1 hour. […] After centrifuged and rinsed 3 times with FACS buffer, cells were suspended with 200 μL of FACS buffer and the results were detected and analyzed by FACS (FACS Calibur, purchased from BD). It was shown in Tables 12-13 that the lead antibody could bind to human BLyS protein on the cell surface and the lead antibody could cross-react with cynomolgus BLyS. The data in the table is MFI, the average fluorescence intensity of the cell population.

Test [10] concerns the target T3, human BLyS (full length, arginine to histidine at position 132) on CHO-K1 cells (human, UniProt Q9Y275 1-285).
T3 construct: also called hBLyS; CHO-K1 hBLyS
The test is described as follows: flow cytometry, CHO-K1 hBLyS cells, antibody 0.0213 nM. As to the method:
as §2
On the technique in general: Flow cytometry measures light scatter and fluorescence of single cells or particles in a stream.

The target of test [11] is T2, cynomolgus BLyS (full length, arginine …). Nature of the test: flow cytometry, CHO-K1 cynoBLyS cells, antibody 0.0213 nM. As to the method: as §2
The target of test [12] is T3, human BLyS (full length, arginine to …). The test is described as follows: flow cytometry, CHO-K1 hBLyS cells, antibody 66.7 nM. As to the method: as §2
The target of test [13] is T2, cynomolgus BLyS (full length, arginine …). Nature of the test: flow cytometry, CHO-K1 cynoBLyS cells, antibody 2.67 nM. As to the method:
as §2

For test [14], the target named is T3, human BLyS (full length, arginine to …). Nature of the test: flow cytometry, CHO-K1 hBLyS cells, antibody 0.107 nM. As to the method:
as §2

Test [15] deals with T2, cynomolgus BLyS (full length, arginine …). The test is described as follows: flow cytometry, CHO-K1 cynoBLyS cells, antibody 13.3 nM. On the procedure:
as §2

The target in test [16] is T3, human BLyS (full length, arginine to …). Nature of the test: flow cytometry, CHO-K1 hBLyS cells, antibody 2.67 nM. On the procedure:
as §2

Test [17] concerns the target T2, cynomolgus BLyS (full length, arginine …). Nature of the test: flow cytometry, CHO-K1 cynoBLyS cells, antibody 0.00427 nM. On the procedure: as §2
Test [18] has the same target. Nature of the test: flow cytometry, CHO-K1 cynoBLyS cells, antibody 0 nM. On the procedure:
as §2

Test [19] shares this target. The test is described as follows: flow cytometry, CHO-K1 cynoBLyS cells, antibody 0.534 nM. As to the method: as §2
Test [20] has as its target T3, human BLyS (full length, arginine to …). The test is described as follows: flow cytometry, CHO-K1 hBLyS cells, antibody 13.3 nM. On the procedure:
as §2

Test [21] has the same target. Nature of the test: flow cytometry, CHO-K1 hBLyS cells, antibody 0 nM. As to the method: as §2
Test [22] deals with T2, cynomolgus BLyS (full length, arginine …). The test is described as follows: flow cytometry, CHO-K1 cynoBLyS cells, antibody 0.107 nM. As to the method:
as §2

Test [23] has as its target T3, human BLyS (full length, arginine to …). The test is described as follows: flow cytometry, CHO-K1 hBLyS cells, antibody 0.534 nM. On the procedure: as §2
The target of test [24] is mouse BLyS protein (mouse, UniProt Q9WU72 69-309). The test is described as follows: cell-based or functional assay.
Sequence of mouse BLyS protein (Q9WU72 69-309): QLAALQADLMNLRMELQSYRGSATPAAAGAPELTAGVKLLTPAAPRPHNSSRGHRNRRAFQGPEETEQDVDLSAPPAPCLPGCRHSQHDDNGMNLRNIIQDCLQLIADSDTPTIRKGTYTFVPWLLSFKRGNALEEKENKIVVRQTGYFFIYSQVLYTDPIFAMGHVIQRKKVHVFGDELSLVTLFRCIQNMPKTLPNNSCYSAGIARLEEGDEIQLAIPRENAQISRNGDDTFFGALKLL
The target of test [25] is T3, human BLyS (full length, arginine to …). The test is described as follows: flow cytometry, CHO-K1 hBLyS cells, antibody 0.00427 nM. On the procedure:
as §2

T3 sequence (Q9Y275 whole entry R130H): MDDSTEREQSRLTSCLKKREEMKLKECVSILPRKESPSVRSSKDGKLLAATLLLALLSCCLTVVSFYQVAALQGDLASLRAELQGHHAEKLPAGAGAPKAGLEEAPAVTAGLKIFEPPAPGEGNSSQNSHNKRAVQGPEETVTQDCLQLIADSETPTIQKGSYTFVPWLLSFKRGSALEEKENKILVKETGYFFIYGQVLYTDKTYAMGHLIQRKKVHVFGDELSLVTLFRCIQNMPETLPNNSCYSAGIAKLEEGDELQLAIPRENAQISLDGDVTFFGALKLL

B1: 97E7B3F2 (antibody, V domains shown)
VH: EVQLQQSGPELVKSGASVKISCKASGYTFTDHKMHWVKQSHGKSLEWIGYISPYNGGTGYNQKFKSKVTLTVDISSSTAYMELRSLTSEDSAVYYCARWGFYDVMDSWGQGTSVTVSS
VL: DVLLTQTPLSLPVSLGDQASISCRSSQTIVHIIGDTYLEWYLQKPGQSPKLLIYKVSNRFSGVPDRFSGSGAGTDFTLKISRVEAEDLGVYYCFQGSHVPRTFGGGTKLEIK
Take B1: the OD450 nm worked out at 0.0556 in [1]; 0.0535 in [2]; 0.62 in [3]; 0.0533 in test [4]; 0.0705 in [5]; 0.182 in [6]. For the same molecule, the OD450 nm in test [7] amounted to 0.0707; in test [8], 0.0537.

B2: 93C6F10D3 (antibody, V domains shown)
VH: EVQLVESGGGLVTPGGSLKLSCVASGFAFSTYGMSWVRQTPERRLEWVAYISGGGGSIYYPDSVKGRFTISRDNAKNILYLQMSSLKSEDTAMYHCTRHPDLLLRYDYALDHWGQGTSVTVSS
VL: DIQMTQSPASLSASVGETVTITCRASENIHIYLAWYQQKQGKSPQLLVYNGKTLADGVPSRFSGSGSGTQYSLKINTLQPEDFGNYYCQHFWNSTWTFGGGTKLEIK
Regarding B2, the OD450 nm in [1] stood at 0.0584; in [2], 0.0546; in [3], 0.57; in test [4], 0.0568; in test [5], 0.0551; in test [6], 0.171. In addition, the OD450 nm in [7] was determined as 0.0746; in test [8], 0.0568.

B3: 35E6F7C3 (antibody, V domains shown)
VH: EVQLQQSGAELVKPGASVKLSCTAAGFNIQDTYIHWVKQRPEQGLEWIGRIDPANANTVYDPKFQGKATITADTSSNTAYLQVSSLTSEDTAVYYCASPVITAGFAYWGQGTLVTVSA
VL: QIVLTQSPAIMSASPGEKVTMTCGASSSVNYVHWYQQKSGTSPKRWIYDTSKLASGVPARFSGSGSGTSYSLTISSMEAEDAATYYCQQWTRSPLTFGAGTKVELK
notes: Mouse hybridoma monoclonal antibody purified on Protein G
Take B3: the MFI in test [9] was determined as 1130 MFI; in [10], 54.9 MFI; in test [11], 66.3 MFI; in [12], 609 MFI; in test [13], 953 MFI; in [14] it was 110 MFI. The MFI came out at 1080 MFI in test [15]; 437 MFI in [16]; 32.6 MFI in test [17]; 20.3 MFI in [18]; 501 MFI in [19]; 528 MFI in test [20]. Besides, the MFI was 52.4 MFI in [21], 177 MFI in test [22], 247 MFI in [23] and 39.2 MFI in [25]. Moreover, in test [24], the “mouse B lymphocyte proliferation (OD450 nm), antibody 0 nM” value was 2160 OD450 nm. In addition, in [24], the “mouse B lymphocyte proliferation (OD450 nm), antibody 0.000256 nM” value came to 2160 OD450 nm. The “mouse B lymphocyte proliferation (OD450 nm), antibody 0.00128 nM” value in test [24] was 2340 OD450 nm. In addition, the “mouse B lymphocyte proliferation (OD450 nm), antibody 0.0064 nM” value in test [24] worked out at 2520 OD450 nm. Further, the “mouse B lymphocyte proliferation (OD450 nm), antibody 0.032 nM” value in [24] was determined as 2430 OD450 nm. For the same molecule, the “mouse B lymphocyte proliferation (OD450 nm), antibody 0.16 nM” value in [24] turned out to be 2410 OD450 nm. For the same molecule, the “mouse B lymphocyte proliferation (OD450 nm), antibody 0.8 nM” value in test [24] stood at 2530 OD450 nm. In [24], the “mouse B lymphocyte proliferation (OD450 nm), antibody 4 nM” value is 2520 OD450 nm. The “mouse B lymphocyte proliferation (OD450 nm), antibody 20 nM” value in [24] was found to be 2560 OD450 nm. For the same molecule, the “mouse B lymphocyte proliferation (OD450 nm), antibody 100 nM” value in test [24] worked out at 2490 OD450 nm.

B4: 20D1B6E9E5 (antibody, V domains shown)
VH: EVQLQQSVAELVRPGASVKLSCTASDFNIKNTYIHWVKQRPEQGLEWIGRIDPVNGNTKYAPKFQDKATIIVDTYSNTAYLQLSSLASEDTAVYYCARWPITTIVATDWYFDVWGTGTTVTVSS
VL: DVLMTQTQLALPVRLGEQASISCRSSQSIVNSNGNTYLEWYLQKPGQSPKLLIYKVSNRFSGVPDRFSGSGSGTDFTLKISRVEAEDLGVYYCFQGSHVPWTFGGGTKLEIK
For B4, the OD450 nm amounted to 0.0611 in [1]; 0.0535 in test [2]; 0.942 in test [3]; 0.055 in test [4]; 0.0543 in test [5]; 0.257 in [6]. The values for the OD450 nm in [7] and in [8] were 0.0775 and 0.0546, respectively.
